Source: patent US20090263375A1 (WISCONSIN ALUMNI RESEARCH FOUNDATION, published 2009)

B2: Flag-Star-PAP (full length) (enzyme)
chain: MAAVDSDVESLPRGGFRCCLCHVTTANRPSLDAHLGGRKHRHLVELRAARKAQGLRSVFVSGFPRGVDSAQLSEYFLAFGPVASVVMDKDKGVFAIVEMGDVGAREAVLSQSQHSLGGHRLRVRPREQKEFQSPASKSPKGAAPDSHQLAKALAEAADVGAQMIKLVGLRELSEAERQLRSLVVALMQEVFTEFFPGCVVHPFGSSINSFDVHGCDLDLFLDLGDLEEPQPVPKAPESPSLDSALASPLDPQALACTPASPPDSQPPASPQDSEALDFETPSSSLAPQTPDSALASETLASPQSLPPASPLLEDREEGDLGKASELAETPKEEKAEGAAMLELVGSILRGCVPGVYRVQTVPSARRPVVKFCHRPSGLHGDVSLSNRLALHNSRFLSLCSELDGRVRPLVYTLRCWAQGRGLSGSGPLLSNYALTLLVIYFLQTRDPPVLPTVSQLTQKAGEGEQVEVDGWDCSFPRDASRLEPSINVEPLSSLLAQFFSCVSCWDLRGSLLSLREGQALPVAGGLPSNLWEGLRLGPLNLQDPFDLSHNVAANVTSRVAGRLQNCCRAAANYCRSLQYQRRSSRGRDWGLLPLLQPSSPSSLLSATPIPLPLAPFTQLTAALVQVFREALGCHIEQATKRTRSEGGGTGESSQGGTSKRLKVDGQKNCCEEGKEEQQGCAGDGGEDRVEEMVIEVGEMVQDWAMQSPGQPGDLPLTTGKHGAPGEEGQPSHAALAERGPKGHEAAQEWSQGEAGKGASLPSSASWRCALWHRVWQGRRRARRRLQQQTKEGAGGGAGTRAGWLATEAQVTQELKGLSGGEERPETEPLLSFVASVSPADRMLTVTPLQDPQGLFPDLHHFLQVFLPQAIRHLK
notes: Expressed in HEK 293 cells and purified on anti-FLAG M2 resin together with its associated complex; also called Flag tagged Star-PAP; full-length Star-PAP; not shown: FLAG tag
B3: Flag-PAPα (canonical poly(A) polymerase) (enzyme)
chain: MPFPVTTQGSQQTQPPQKHYGITSPISLAAPKETDCVLTQKLIETLKPFGVFEEEEELQRRILILGKLNNLVKEWIREISESKNLPQSVIENVGGKIFTFGSYRLGVHTKGADIDALCVAPRHVDRSDFFTSFYDKLKLQEEVKDLRAVEEAFVPVIKLCFDGIEIDILFARLALQTIPEDLDLRDDSLLKNLDIRCIRSLNGCRVTDEILHLVPNIDNFRLTLRAIKLWAKRHNIYSNILGFLGGVSWAMLVARTCQLYPNAIASTLVHKFFLVFSKWEWPNPVLLKQPEECNLNLPVWDPRVNPSDRYHLMPIITPAYPQQNSTYNVSVSTRMVMVEEFKQGLAITDEILLSKAEWSKLFEAPNFFQKYKHYIVLLASAPTEKQRLEWVGLVESKIRILVGSLEKNEFITLAHVNPQSFPAPKENPDKEEFRTMWVIGLVFKKTENSENLSVDLTYDIQSFTDTVYRQAINSKMFEVDMKIAAMHVKRKQLHQLLPNHVLQKKKKHSTEGVKLTALNDSSLDLSMDSDNSMSVPSPTSATKTSPLNSSGSSQGRNSPAPAVTAASVTNIQATEVSVPQVNSSESSGGTSSESIPQTATQPAISPPPKPTVSRVVSSTRLVNPPPRSSGNAATSGNAATKIPTPIVGVKRTSSPHKEESPKKTKTEEDETSEDANCLALSGHDKTEAKEQLDTETSTTQSETIQTAASLLASQKTSSTDLSDIPALPANPIPVIKNSIKLRLNR
notes: not shown: FLAG tag

Columns and labels:
[1] = biological target: B2; assay: FLAG affinity purification from HEK 293 cells, western blot
Protocol: (§1) Affinity purification of Flag-Star-PAP and Flag-PAPα and their associated complex of proteins in parallel allowed a comparison of the complexes formed by Star-PAP and PAPα in more detail. Flag tagged Star-PAP and PAPα were purified from HEK 293 cells stably expressing Flag-Star-PAP or Flag-PAPα (following manufacturer's instructions; Sigma-Aldrich) and the presence of endogenous symplekin, CPSF¹⁰⁰, CPSF⁷³, CstF⁶⁴, RNA Pol II, Sm protein (Y12) and PIPKIα was assessed by western blotting. Like Flag-PAPα, Flag-Star-PAP associates with symplekin, CPSF¹⁰⁰ and CPSF⁷³, further confirmation that Star-PAP may function in an mRNA polyadenylation complex (FIG. 7). Also detected with both PAPs was a faster migrating form of RNA Pol II and Sm protein (Y-12), a component of the spliceosome, which is consistent with reports that the machinery for splicing and polyadenylation are coupled.

[2] = biological target: B3; assay: as above
Protocol: as §1

[3] = biological target: T1, endogenous Star-PAP (human, UniProt Q9H6E5 1-874); assay: co-immunoprecipitation with antibodies against full-length Star-PAP, western blot
T1 sequence: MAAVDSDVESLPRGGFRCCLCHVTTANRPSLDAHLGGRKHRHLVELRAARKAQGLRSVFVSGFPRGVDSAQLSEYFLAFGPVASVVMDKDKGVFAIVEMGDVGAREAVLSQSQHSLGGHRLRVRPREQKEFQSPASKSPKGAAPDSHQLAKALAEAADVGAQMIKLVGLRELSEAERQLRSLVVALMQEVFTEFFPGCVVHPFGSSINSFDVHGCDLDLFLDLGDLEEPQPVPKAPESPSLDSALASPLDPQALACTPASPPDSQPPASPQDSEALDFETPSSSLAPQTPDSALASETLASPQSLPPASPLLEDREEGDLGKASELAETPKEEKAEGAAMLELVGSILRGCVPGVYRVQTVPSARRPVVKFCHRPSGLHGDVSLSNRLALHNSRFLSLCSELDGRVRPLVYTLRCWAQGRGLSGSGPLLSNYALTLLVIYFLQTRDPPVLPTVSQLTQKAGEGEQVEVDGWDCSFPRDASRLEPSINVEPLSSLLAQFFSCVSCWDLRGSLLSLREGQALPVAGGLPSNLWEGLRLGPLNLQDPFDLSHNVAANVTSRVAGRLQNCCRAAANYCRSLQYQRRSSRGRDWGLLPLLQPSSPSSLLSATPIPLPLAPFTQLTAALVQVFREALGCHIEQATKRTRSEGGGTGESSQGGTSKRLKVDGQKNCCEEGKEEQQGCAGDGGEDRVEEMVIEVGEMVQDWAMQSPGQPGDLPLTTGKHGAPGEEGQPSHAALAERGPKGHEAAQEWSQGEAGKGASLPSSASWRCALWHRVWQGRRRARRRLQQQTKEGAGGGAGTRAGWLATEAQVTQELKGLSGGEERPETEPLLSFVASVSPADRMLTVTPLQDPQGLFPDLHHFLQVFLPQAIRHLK

[4] = biological target: T2, Symplekin (human, UniProt Q92797 1-1274); assay: FLAG affinity purification from HEK 293 cells, western blot
T2 sequence (looked up): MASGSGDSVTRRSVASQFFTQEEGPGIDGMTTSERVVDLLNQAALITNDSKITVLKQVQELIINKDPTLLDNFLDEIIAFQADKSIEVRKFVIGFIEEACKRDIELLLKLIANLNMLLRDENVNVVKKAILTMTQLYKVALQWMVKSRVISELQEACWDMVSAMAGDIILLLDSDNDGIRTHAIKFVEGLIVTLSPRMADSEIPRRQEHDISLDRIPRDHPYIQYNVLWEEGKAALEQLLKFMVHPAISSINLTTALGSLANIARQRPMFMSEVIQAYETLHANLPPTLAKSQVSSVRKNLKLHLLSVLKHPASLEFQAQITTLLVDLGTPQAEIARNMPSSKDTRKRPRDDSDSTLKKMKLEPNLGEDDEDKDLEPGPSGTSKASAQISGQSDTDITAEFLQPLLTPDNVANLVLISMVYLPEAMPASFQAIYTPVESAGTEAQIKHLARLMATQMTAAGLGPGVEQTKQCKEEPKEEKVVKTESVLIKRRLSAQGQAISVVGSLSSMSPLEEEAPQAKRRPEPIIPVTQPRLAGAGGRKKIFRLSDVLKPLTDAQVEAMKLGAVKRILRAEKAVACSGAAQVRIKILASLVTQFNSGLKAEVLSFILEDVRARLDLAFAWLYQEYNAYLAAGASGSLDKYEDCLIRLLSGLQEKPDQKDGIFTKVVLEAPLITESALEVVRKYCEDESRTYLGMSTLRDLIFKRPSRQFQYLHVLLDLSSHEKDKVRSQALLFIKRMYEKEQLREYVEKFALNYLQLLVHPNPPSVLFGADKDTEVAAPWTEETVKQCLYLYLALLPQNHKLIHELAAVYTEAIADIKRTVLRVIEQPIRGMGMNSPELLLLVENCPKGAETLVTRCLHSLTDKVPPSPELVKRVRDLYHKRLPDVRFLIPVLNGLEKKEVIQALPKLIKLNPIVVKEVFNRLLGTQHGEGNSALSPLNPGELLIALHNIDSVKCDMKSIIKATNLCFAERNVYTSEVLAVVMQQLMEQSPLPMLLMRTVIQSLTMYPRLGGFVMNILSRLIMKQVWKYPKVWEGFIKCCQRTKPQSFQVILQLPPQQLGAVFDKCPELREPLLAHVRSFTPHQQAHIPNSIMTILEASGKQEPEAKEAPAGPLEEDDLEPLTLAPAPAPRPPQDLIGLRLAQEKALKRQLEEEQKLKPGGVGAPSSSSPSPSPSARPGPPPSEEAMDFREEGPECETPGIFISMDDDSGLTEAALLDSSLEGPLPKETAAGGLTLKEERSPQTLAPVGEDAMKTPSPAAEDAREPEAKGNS
Protocol: as §1

[5] = biological target: T3, CPSF-100 (Cleavage and Polyadenylation Specificity Factor subunit 100) (human, UniProt Q9P2I0 1-782); assay: as above
T3 construct: also called SPSF-100
T3 sequence (looked up): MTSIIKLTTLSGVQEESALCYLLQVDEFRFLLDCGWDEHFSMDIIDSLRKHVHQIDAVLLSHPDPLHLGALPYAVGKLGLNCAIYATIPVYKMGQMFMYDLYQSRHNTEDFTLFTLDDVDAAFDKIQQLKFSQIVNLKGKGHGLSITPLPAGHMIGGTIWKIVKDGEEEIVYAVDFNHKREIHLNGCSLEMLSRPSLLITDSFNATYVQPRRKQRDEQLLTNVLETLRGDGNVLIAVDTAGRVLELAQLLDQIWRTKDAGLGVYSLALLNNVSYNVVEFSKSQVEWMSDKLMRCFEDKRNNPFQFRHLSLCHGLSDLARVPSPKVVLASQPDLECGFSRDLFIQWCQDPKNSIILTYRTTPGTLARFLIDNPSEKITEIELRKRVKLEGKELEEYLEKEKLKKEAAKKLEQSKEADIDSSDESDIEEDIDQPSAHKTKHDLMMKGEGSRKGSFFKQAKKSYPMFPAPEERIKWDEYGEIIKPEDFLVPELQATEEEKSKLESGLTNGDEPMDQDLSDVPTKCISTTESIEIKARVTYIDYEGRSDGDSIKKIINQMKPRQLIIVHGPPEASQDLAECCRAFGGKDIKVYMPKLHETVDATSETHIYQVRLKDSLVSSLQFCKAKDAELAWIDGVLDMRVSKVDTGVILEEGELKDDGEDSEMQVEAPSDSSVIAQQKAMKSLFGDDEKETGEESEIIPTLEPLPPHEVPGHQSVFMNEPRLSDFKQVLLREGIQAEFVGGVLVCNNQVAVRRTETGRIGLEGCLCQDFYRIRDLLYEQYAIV
Protocol: as §1

B1: PIPKIα (endogenous) (enzyme, human, UniProt Q99755 1-562, looked up)
chain: MASASSGPSSSVGFSSFDPAVPSCTLSSAASGIKRPMASEVLEARQDSYISLVPYASGMPIKKIGHRSVDSSGETTYKKTTSSALKGAIQLGITHTVGSLSTKPERDVLMQDFYVVESIFFPSEGSNLTPAHHYNDFRFKTYAPVAFRYFRELFGIRPDDYLYSLCSEPLIELCSSGASGSLFYVSSDDEFIIKTVQHKEAEFLQKLLPGYYMNLNQNPRTLLPKFYGLYCVQAGGKNIRIVVMNNLLPRSVKMHIKYDLKGSTYKRRASQKEREKPLPTFKDLDFLQDIPDGLFLDADMYNALCKTLQRDCLVLQSFKIMDYSLLMSIHNIDHAQREPLSSETQYSVDTRRPAPQKALYSTAMESIQGEARRGGTMETDDHMGGIPARNSKGERLLLYIGIIDILQSYRFVKKLEHSWKALVHDGDTVSVHRPGFYAERFQRFMCNTVFKKIPLKPSPSKKFRSGSSFSRRAGSSGNSCITYQPSVSGEHKAQVTTKAEVEPGVHLGRPDVLPQTPPLEEISEGSPIPDPSFSPLVGETLQMLTTSTTLEKLEVAESEFTH
notes: Detected by western blot in immunoprecipitates and FLAG-purified complexes; also called type I phosphatidylinositol phosphate kinase alpha; PIP kinase
- binding result [1]: binds
- binding result [2]: no binding
- binding result [3]: binds

Binder: B2
- binding result [4]: binds

Binder: B3
- binding result [5]: binds
- binding result [4]: binds
